From paper doi:10.1101/2025.05.16.654433
Changes are numbered by the printed parent chain. Names may count otherwise.

Molecular target: T1, GSP-2 (C. elegans PP1 homolog), as found in the MudPIT immunoprecipitations, P48727
T1 chain: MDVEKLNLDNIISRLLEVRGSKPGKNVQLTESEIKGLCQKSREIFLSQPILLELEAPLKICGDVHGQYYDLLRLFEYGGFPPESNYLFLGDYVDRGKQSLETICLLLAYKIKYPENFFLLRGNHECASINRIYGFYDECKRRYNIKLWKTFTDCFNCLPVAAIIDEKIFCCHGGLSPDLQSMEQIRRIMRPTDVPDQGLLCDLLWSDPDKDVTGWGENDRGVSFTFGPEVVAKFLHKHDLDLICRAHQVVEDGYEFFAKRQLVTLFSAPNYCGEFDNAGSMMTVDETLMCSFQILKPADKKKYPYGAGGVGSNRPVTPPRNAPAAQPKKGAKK
Assay: MudPIT analysis of 3xflag immunoprecipitations
Conditions: chain shown with the change, whole-worm lysates, parent: 10.79

B1: APE-1 (C. elegans ASPP homolog), 3xflag-tagged, as in the MudPIT immunoprecipitations, Q9XVN3 H591Y (protein)
chain: MVTTSSGGGIGYPANNGVTQVSLIHSSDSVRTVSTAPIYRPTSSMASTMAHKSSTAPFISANQRMSKPPVRVVAQPPPPHPQALSQQYHQQNPMMMYSAPNTRPHVIPTMQVQPTMAAQIKRNNPVNAQFQNPSEMIADYGVKPQSVEMVQRVRAVRRQVADEETELRRLRELEHETAQLQNKNYGRERELNVQGSMLKEAQLELRNASMRAQSLNKHLEEMYRRRQTAAAAALVEQRKMQQHQILLARAANQVSTQEVIRPRASVEPFQVNNTQQQQPSPQMMKSEEFSEKRDLNGQTGSYDAIDGSGDHQKIPTEPSYLAPCKENQQKYSELSKMASTDPHSNHSSPSTSSQKAPTLITFSPPSFEQKINSSTMTRDSPFVERPTSFGDSLDESRLRSGKTDLVSLRSDSLKATKRRSWAASEGTSMSEAEMIHRLLDEQRRGRSHFIPQLPTSQEEPSAITSETYAEEVVNSESKQVATSSDSTNNLELPTEQMVLGSDTTTEEDASSCSTRSDDGQNLEMEVAIERRTVKGILRRPNEKMNKGRIEFDPLALLLDAALEGELDLVRSSASKLTDVSQANDEGITALYNAICAGHYEIVRFLIENDADVNAQDSDGWTPLHCAASCNNLPMVRQLVEGGGCVLASTLSDMETPVEKCEEDEDGYDGCLKYLSAAHNSTGSINTGKVYAAYGYEAAFEDELSFDAGDELTVIEKDKVDKNWWTCEKNNGEKGQVPRTYLALYPSLKYRKKLNFVMFDLPLESNNNVE
Question: For B1, which response (% of total protein) (bait recovered in same sample 0.12 (mutant) vs 0.54 (wild type) % of total protein) is on record?
Answer: The response (% of total protein) was 0.87.

B2: APE-1 (C. elegans ASPP homolog), 3xflag-tagged, as in the MudPIT immunoprecipitations, Q9XVN3 N583K (protein)
chain: B1 chain with N583K, Y591H
Question: How did the response (% of total protein) (bait recovered in same sample 0.22 (mutant) vs 0.54 (wild type) % of total protein) turn out when B2 was run?
Answer: Its response (% of total protein) is 0.87.
